Laboratory results reported in patent US20060105444A1, “O-fucosyltransferase” (Genentech, Inc., priority 1997, published 2006).

Target: T1, purified O-fucosyltransferase (Cricetulus griseus, UniProt P83337)
T1 construct: endogenous in cells; host or cells: CHO cell paste (enzyme); E. coli periplasm (EGF substrates)
Experiment: Acceptor substrate specificity: fucosyltransferase assay with Factor IX EGF domain mutants
Format: biochemical, CHO cells (Chinese hamster ovary)
Conditions: for Fucose (cpm): human Factor IX EGF domain or mutant as acceptor substrate, 14C-fucose incorporated; for acceptor substrate for the O-fucosyltransferase (in words): recombinant Factor IX EGF domains, assay counts and LC/MS of fucosylation product
Experimental: A reaction volume of 50 μl contained the following ingredient: 0.1 M imidazole-HCl, pH 7.0; 50 mM MnCl2; 0.1 mM GDP-^14C-Fucose (4000-8000 cpm/nmol), 20 μM recombinant human Factor VII EGF-1 domain and about 0.01-0.1 milliunit of enzyme activity. The mixture was incubated at 37° C. for 10-20 minutes. The reaction was stopped by placing the mixture on ice, then diluting with 950 μl of 0.25 M EDTA, pH 8.0. Separation of incorporated fucose from GDP-fucose, fucose-phosphate and free fucose was carried out by passing the solution through a C18 cartridge (Alltech, Extract Clean, C18, 200 mg). The cartridge was washed with 5 ml of H2O, and the product was then eluted with 3 ml of 80% acetonitrile containing 0.052% TFA. The eluant was mixed with 10 ml Aquasol II (NEN/Du Pont) and counted using a liquid scintillation counter.
As described previously, all the O-fucosylation on EGF domains occur within the putative consensus sequence CXXGGSC (SEQ ID NO: 1) or alternatively CXXGGTC (SEQ ID NO: 21). […] Three mutants were constructed using alanine to replace either of the two or both glycine residues and tested as acceptor substrate for the purified O-fucosyltransferase. Assays using the four recombinant EGF domains all gave positive counts. It appeared that the two glycine residues were not absolutely required for activity.
In order to determine if all the different forms of the mutants served as substrate for the O-fucosyltransferase, reverse-phase HPLC online with electrospray mass spectrometry was used to analyze the product of the fucosylation reaction. Shown in FIG. 8 is the experiment using the mutant ala-ala. Analysis of the other tested mutants gave similar results. […] The enzyme O-fucosyltransferase required its substrate in order to have the proper three dimensional structure in order to function properly.

Substance | Fucose (cpm) | acceptor substrate for the O-fucosyltransferase (in words)
EGF (wild type): Recombinant human Factor IX EGF domain, wild type, sequence -CLNGGSC- (SEQ ID NO: 20) (KRYNSGKLEEFVQGNLERECMEEKCSFEEAREVFENTERTTEFHHHHHHGSA) | 12062 cpm | better substrate than the mutants
EGF.AA: Recombinant human Factor IX EGF domain mutant, sequence -CLNAASC- (SEQ ID NO: 17), both glycines replaced by alanine | 1818 cpm | only one of the four differently folded species served as an acceptor substrate
EGF.AG: Recombinant human Factor IX EGF domain mutant, sequence -CLNAGSC- (SEQ ID NO: 18) (KRYNSGKLEEFVQGNLERECMEEKCSFEEAREVFENTERTTEFHHHHHHGSA) | 4585 cpm | 
